Experiment [1] addresses SARS-CoV-2 spike receptor binding domain, Delta B.1.617.2 (SARS-CoV-2 Delta B.1.617.2 (on …, strain)).
The target of experiment [2] is SARS-CoV-2 spike receptor binding domain, Omicron BA.1 (IPBCAMS-OM01/2021) (SARS-CoV-2 Omicron BA.1, isolate …, strain).
Experiment [3] deals with SARS-CoV-2 Spike RBD Omicron BA.4&BA.5 (SARS-CoV-2 Omicron BA.4/BA.5, strain).
Experiment [4] concerns the target SARS-CoV-2 spike receptor binding domain, Wuhan-Hu-1 (WT) (SARS-CoV-2 Wuhan-Hu-1, UniProt P0DTC2).
Experiment [5] addresses SARS-CoV-2 spike receptor binding domain, Beta B.1.351 (SARS-CoV-2 Beta B.1.351 (on Wuhan-Hu-1 …, strain)).

B1: H7 (VHH)
VHH: QVQLVESGGGLVQPGGSLRLSCAASGYSYRSTYYLGWFRQAPGQGLEAVAAIYGAGSTYYADSVKGRFTISRDNSKNTLYLQMNSLRAEDTAVYYCAAGDESTRGYGYSWDYWGQGTLVTVSS
Usually Kd stands for the equilibrium constant for the complex coming apart. Read a high Kd as weaker binding. Regarding B1, the values for the Kd in experiment [1], in experiment [4] and in experiment [5] were 7.2 nM, 4.4 nM and 3.7 nM, respectively. In addition, the binding result in experiment [2] and in experiment [3] was “binds” throughout.

Source of the values: article PMC9524272 (Frontiers in Immunology, 2022).
